Laboratory results from patent US20220002426A1 (BIOINVENT INTERNATIONAL, published 2022).
Like-named read-outs stand apart in the source and are kept apart here.

T1: mTNFRII (Sinobioologicals Cat No. 50128 M08H) (mouse, UniProt P25119 23-258, limits assumed)
T1 construct: bought
T1 sequence (looked up): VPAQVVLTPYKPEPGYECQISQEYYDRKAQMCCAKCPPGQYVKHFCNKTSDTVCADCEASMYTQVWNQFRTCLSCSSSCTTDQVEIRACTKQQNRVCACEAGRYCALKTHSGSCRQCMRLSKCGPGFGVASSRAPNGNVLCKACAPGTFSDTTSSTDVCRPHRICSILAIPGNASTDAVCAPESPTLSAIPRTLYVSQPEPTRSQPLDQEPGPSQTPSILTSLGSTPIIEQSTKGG

T2: recombinant human TNFR2-Fc protein (Sino Biological) (human, UniProt P20333 23-257, limits assumed)
T2 construct: bought; also called human TNFR2 protein; not shown: Fc part of the bought fusion protein; not described
T2 sequence (looked up): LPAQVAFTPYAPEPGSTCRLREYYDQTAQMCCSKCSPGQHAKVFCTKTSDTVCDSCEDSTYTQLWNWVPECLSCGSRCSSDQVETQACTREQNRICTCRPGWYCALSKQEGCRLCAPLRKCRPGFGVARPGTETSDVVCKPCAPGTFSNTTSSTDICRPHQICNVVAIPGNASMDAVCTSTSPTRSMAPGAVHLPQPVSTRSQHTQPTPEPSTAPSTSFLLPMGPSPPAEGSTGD

T3: wild type, full length human TNFR2 (on cells) (human, UniProt P20333 23-461)
T3 construct: whole, on cells; also called hTNFR2; TNFRII
T3 sequence (looked up): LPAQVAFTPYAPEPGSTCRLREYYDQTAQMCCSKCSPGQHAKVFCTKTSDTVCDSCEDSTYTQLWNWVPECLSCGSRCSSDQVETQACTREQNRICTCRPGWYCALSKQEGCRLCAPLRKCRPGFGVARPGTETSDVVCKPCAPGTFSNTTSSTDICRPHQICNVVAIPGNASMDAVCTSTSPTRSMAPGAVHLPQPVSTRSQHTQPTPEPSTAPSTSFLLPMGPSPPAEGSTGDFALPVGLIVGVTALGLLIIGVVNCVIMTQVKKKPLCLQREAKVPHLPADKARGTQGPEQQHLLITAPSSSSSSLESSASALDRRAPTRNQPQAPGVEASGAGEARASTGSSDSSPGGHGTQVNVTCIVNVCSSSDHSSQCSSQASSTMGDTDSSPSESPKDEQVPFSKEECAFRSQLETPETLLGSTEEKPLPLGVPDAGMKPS

T4: wild type, full length murine TNFR2 (on cells) (mouse, UniProt P25119 23-474)
T4 construct: whole, on cells; also called mTNFR2; mouse TNFR2
T4 sequence (looked up): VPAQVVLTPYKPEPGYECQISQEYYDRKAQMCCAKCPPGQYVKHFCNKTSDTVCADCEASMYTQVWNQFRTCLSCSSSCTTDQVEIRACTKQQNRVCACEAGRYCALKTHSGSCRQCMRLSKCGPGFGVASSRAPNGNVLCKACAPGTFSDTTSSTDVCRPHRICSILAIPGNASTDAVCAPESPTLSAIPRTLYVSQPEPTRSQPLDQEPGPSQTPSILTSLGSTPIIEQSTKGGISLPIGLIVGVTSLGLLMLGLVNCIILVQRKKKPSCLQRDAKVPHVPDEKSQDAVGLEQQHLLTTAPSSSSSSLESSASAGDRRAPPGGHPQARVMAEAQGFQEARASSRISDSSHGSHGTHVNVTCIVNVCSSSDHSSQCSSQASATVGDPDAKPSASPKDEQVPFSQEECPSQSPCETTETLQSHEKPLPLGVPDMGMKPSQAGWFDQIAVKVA

T5: recombinant mouse TNFR2-Fc protein (Sino Biological) (mouse, UniProt P25119 23-258, limits assumed)
T5 construct: bought; also called mTNFR2 protein; mTNFR2; not shown: Fc part of the bought fusion protein; not described
T5 sequence (looked up): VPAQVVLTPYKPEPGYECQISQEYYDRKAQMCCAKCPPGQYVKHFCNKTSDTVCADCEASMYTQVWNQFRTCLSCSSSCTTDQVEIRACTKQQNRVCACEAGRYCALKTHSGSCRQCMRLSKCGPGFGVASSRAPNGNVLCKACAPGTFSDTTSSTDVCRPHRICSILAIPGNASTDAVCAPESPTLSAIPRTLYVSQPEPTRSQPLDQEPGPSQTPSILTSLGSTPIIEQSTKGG

T6: hTNFRII (Sinobioologicals Cat nr10414-H08H) (human, UniProt P20333 23-257)
T6 construct: bought; also called immobilized TNFR2
T6 sequence (looked up): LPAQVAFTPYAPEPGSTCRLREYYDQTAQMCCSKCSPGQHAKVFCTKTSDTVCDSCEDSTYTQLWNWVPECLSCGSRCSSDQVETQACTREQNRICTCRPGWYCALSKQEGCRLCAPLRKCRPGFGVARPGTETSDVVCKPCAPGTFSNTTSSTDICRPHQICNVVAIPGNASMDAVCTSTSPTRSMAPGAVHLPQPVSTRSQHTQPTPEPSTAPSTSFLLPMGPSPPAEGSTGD

T7: Cynomolgus TNFR2 (on cynomolgus CD4+ T cells) (cynomolgus monkey (Macaca fascicularis), UniProt A0A2K5VET2 132-571)
T7 construct: whole, on cells; also called cmTNFR2; cynoTNFR2
T7 sequence: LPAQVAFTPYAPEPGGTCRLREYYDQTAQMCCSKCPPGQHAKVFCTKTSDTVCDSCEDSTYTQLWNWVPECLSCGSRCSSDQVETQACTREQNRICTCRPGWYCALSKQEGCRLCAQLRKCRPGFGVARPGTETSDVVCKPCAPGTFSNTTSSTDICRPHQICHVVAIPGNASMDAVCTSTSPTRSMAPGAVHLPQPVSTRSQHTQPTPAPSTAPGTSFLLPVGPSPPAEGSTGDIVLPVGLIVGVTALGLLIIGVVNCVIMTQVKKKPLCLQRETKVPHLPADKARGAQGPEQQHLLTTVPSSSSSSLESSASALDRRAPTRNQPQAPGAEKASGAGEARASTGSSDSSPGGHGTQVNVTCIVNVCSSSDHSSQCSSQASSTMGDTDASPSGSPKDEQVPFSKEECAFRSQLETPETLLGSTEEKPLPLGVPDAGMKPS


Tests used:
[1] = target: T1, mTNFRII (Sinobioologicals Cat No. 50128 …); test: ELISA, coated mTNFRII, mTNF-α 2 nM, rabbit anti-mTNF-α and anti-rabbit-HRP
Method: (§1) 96-well plates were coated with hTNFRII (Sinobioologicals Cat nr10414-H08H) or mTNFRII (Sinobioologicals Cat No. 50128 M08H) at 2.5 pmol/well in ELISA coating buffer (0.1 M sodium carbonate pH 9.5) and incubated overnight at 4° C. After washing in ELISA wash buffer (PBS with 0.05% Tween20), the plates were incubated under slow agitation for 1 h in room temperature with n-CoDeR® mAbs at 10 μg/ml (one-dose ELISA) or 33 nM and subsequent 1:2 dilutions (titration ELISA) in block buffer containing 0.45% fish gelatin. […] Thereafter, plates were washed. For the human ELISAs, Streptavidin-HRP (Jackson Cat No. 016-030-084) diluted 1:2000 in block buffer were added and again incubated for 1 h at room temperature followed by washes first in ELISA buffer and then in Tris buffer (pH 9.8). The substrate (Super Signal ELISA Pico from Thermo Scientific Cat. No. 37069) were thereafter diluted according to the manufacturers instruction, added to the wells and incubated in darkness for 10 min before reading in a Tecan Ultra. […] After washing, anti-Rabbit-HRP diluted 1:10 000 in block buffer was added and again incubated for 1 h at room temperature. Substrate adding and reading were performed as above.

[2] = target: T2, recombinant human TNFR2-Fc protein …; test: ELISA, coated TNFR2-Fc
Method: (§2) 96-well plates (Lumitrac 600 LIA plate, Greiner) were coated overnight at 4° C. with recombinant human or mouse TNFR2-Fc protein (Sino Biological) at 1 pmol/well. After washing, titrated doses of anti-TNFR2 mAbs from 20 μg/ml to 0.1 ng/ml (133 nM to 1 pM) were allowed to bind for 1 hour. Plates were then washed again, and bound antibodies were detected with an anti-human-F(ab)-HRP secondary antibody (Jackson ImmunoResearch) diluted in 50 ng/ml. Super Signal ELISA Pico (Thermo Scientific) was used as substrate and the plates were analyzed using Tecan Ultra Microplate reader.

[3] = target: T3, wild type, full length human TNFR2 (on …); test: FACS, activated CD4+ T cells
Method: (§3) The ability and affinity of TNFR2 n-CoDeR® antibodies to bind TNFR2 expressed on cells were obtained using in vitro activated CD4⁺ T cells. Human CD4⁺ T cells were stimulated with 50 ng/ml rhIL-2 (R&D systems) and Dynabeads® T-Activator CD3/CD28 for T-Cell Expansion and Activation (Gibco) 2-3 days at 37 degrees. […] Cells were then incubated with an APC conjugated a-human IgG secondary ab (Jackson) followed by analysis by flow cytometry (FACSVerse, BD).

[4] = target: T4, wild type, full length murine TNFR2 (on …); test: FACS, transfected HEK293 cells
[5] = target: T5, recombinant mouse TNFR2-Fc protein …; test: ELISA, coated TNFR2-Fc
Method: as §2

[6] = target: T4, wild type, full length murine TNFR2 (on …); test: FACS, activated mouse CD4+ T cells
[7] = target: T3, wild type, full length human TNFR2 (on …); test: FACS, activated CD4+ T cells; remark: listed apart in the source
Method: as §3

[8] = target: T6, hTNFRII (Sinobioologicals Cat …); test: blocking ELISA, coated hTNFRII, competitor hTNF-α-bio 5 nM
Method: as §1

[9] = target: T7, Cynomolgus TNFR2 (on cynomolgus CD4+ T …); test: FACS, stimulated cynomolgus CD4+ T cells, % over isotype
Method: To validate the cross-reactivity of TNFR2 antibodies to Cynomolgus, Cynomolgus CD4⁺ T cells were stimulated 2 days with 50 ng/ml PMA (Sigma) and 100 ng/ml lonomycin (Sigma). Cells were incubated with TNFR2 specific n-CoDeR® antibodies at 3 different concentrations (0.1, 1 and 10 μg/ml) and then incubated with an APC conjugated secondary a-human IgG reagent (Jackson).

EC50 [2] | EC50 [3] | binding result [4] | EC50 [8] | Binder | also measured
 |  |  |  | mTNF-α (Gibco Cat. No. PMC3014) (ligand, mouse, UniProt P06804 80-235, looked up) LRSSSQNSSDKPVAHVVANHQVEEQLEWLSQRANALLANGMDLKDNQLVVPADGLYLVYSQVLFKGQGCPDYVLLTHTVSRFAISYQEKVNLLSAVKSPCPKDTPEGAELKPWYEPIYLGGVFQLEKGDQLSAEVNLPKYLDFAESGQVYFGVIAL | binding result [1]: binds
0.15 nM | 2.5 nM | no binding |  | 001-F06 (antibody, V domains shown, IgG) VH: EVQLLESGGGLVQPGGSLRLSCAASGFTFSSYAMHWVRQAPGKGLEWVSAISGGATTTYYADSVKGRFTISRDNSKNTLYLQMNSLRAEDTAVYYCAKGGTGDPYYFDYWGQGTLVTVSS VL: QSVLTQPPSASGTPGQRVTISCTGSSSNIGAGYDVHWYQQLPGTAPKLLIYRNNQRPSGVPDRFSGSKSGTSASLAISGLRSEDEADYYCAARDDGLSGPVFGGGTKLTVLG | 
 |  |  |  | 005-A05 (antibody, V domains shown, also called 5-A05 (mouse)) VH: EVQLLESGGGLVQPGGSLRLSCAASGFTFSSYAMSWVRQAPGKGLEWVSTIIGSGANTWYADSVKGRFTISRDNSKNTLYLQMNSLRAEDTAVYYCARHEGYYYYGMDVWGQGTLVTVSS VL: QSVLTQPPSASGTPGQRVTISCTGSSSNIGAGYVVHWYQQLPGTAPKLLIYGNSNRPSGVPDRFSGSKSGTSASLAISGLRSEDEADYYCAAWDDSLNGRVFGGGTKLTVLG | EC50 [5]: 1.4 nM; EC50 [6]: 0.11 nM
0.75 nM | 53 nM |  |  | 001-C03 (antibody, V domains shown, IgG; also called 1-003; 001-0O3) VH: EVQLLESGGGLVQPGGSLRLSCAASGFTFSNAWMSWVRQAPGKGLEWVSAISVSGINTYYADSVKGRFTISRDNSKNTLYLQMNSLRAEDTAVYYCARDTGSLGVDYWGQGTLVTVSS VL: QSVLTQPPSASGTPGQRVTISCSGSSSNIGSNTVNWYQQLPGTAPKLLIYRNNQRPSGVPDRFSGSKSGTSASLAISGLRSEDEADYYCQSYDSSLSISVFGGGTKLTVLG | EC50 [7]: 52.7 nM
0.2 nM | 0.59 nM |  | 0.4 nM | 004-H02 (antibody, V domains shown, IgG) VH: EVQLLESGGGLVQPGGSLRLSCAASGFTFDDYGMSWVRQAPGKGLEWVSTIYSGDNAYYGASVRGRFTISRDNSKNTLYLQMNSLRAEDTAVYYCARVYSSSWRKRAFDIWGQGTLVTVSS VL: not shown | EC50 [7]: 0.6 nM
1.7 nM | 18 nM |  | 3.2 nM | 001-G04 (antibody, V domains shown, IgG) VH: EVQLLESGGGLVQPGGSLRLSCAASGFTFNTYSMNWVRQAPGKGLEWVSVLYSDDDTHYADSVKGRFTISRDNSKNTLYLQMNSLRAEDTAVYYCARDCGGDCHSGDDAFDIWGQGTLVTVSS VL: not shown | binding result [9]: no binding (tested: 10 µg/ml)
0.17 nM | 1.2 nM | no binding | 0.3 nM | 005-B08 (antibody, V domains shown, IgG) VH: EVQLLESGGGLVQPGGSLRLSCAASGFTFSDYYMSWIRQAPGKGLEWVAIISYDGGGKYFADPVKGRFTISRDNSKNTLYLQMNSLRAEDTAVYYCARYYGDGGFDPWGQGTLVTVSS VL: not shown | 
0.29 nM | 3.3 nM | no binding | 1.6 nM | 001-G10 (antibody, V domains shown, IgG) VH: EVQLLESGGGLVQPGGSLRLSCAASGFTFSAYGMHWVRQAPGKGLEWVAVVSYDGREKHYADSVKGRFTISRDNSKNTLYLQMNSLRAEDTAVYYCARSDGGYDSDSGYYWGQGTLVTVSS VL: QSVLTQPPSASGTPGQRVTISCSGSTSNIGSNFVYWYQQLPGTAPKLLIYDNNKRPSGVPDRFSGSKSGTSASLAISGLRSEDEADYYCSSYAYSDNILFGGGTKLTVLG | 
